The values below come from FireProtDB (doi:10.1093/protein/14.11.891).

The labels stand for the following.
B1: Sialidase, P29768 (parent)
chain: MTVEKSVVFKAEGEHFTDQKGNTIVGSGSGGTTKYFRIPAMCTTSKGTIVVFADARHNTASDQSFIDTAAARSTDGGKTWNKKIAIYNDRVNSKLSRVMDPTCIVANIQGRETILVMVGKWNNNDKTWGAYRDKAPDTDWDLVLYKSTDDGVTFSKVETNIHDIVTKNGTISAMLGGVGSGLQLNDGKLVFPVQMVRTKNITTVLNTSFIYSTDGITWSLPSGYCEGFGSENNIIEFNASLVNNIRNSGLRRSFETKDFGKTWTEFPPMDKKVDNRNHGVQGSTITIPSGNKLVAAHSSAQNKNNDYTRSDISLYAHNLYSGEVKLIDDFYPKVGNASGAGYSCLSYRKNVDKETLYVVYEANGSIEFQDLSRHLPVIKSYN

In the data set the parent is B1. The settings on record: Salmonella typhimurium (strain LT2 / SGSC1412 / ATCC 700720), pH 7, CD, Potassium phosphate 10 mM, reversible: yes, structure 1DIL, whole UniProt chain shown; for ddG of mutation (higher = less stable) / denaturant midpoint (higher = more stable) / unfolding free energy: 25 °C, GdnHCl; for Tm / change of melting temperature, mutant - wild type (higher = more stable): Thermal.

A69V: the “ddG of mutation (higher = less stable)” value was -0.62 kcal/mol, the “denaturant midpoint (higher = more stable)” value was 1.42 M, the unfolding free energy was 4.86 kcal/mol and the Tm is 60 °C. The “change of melting temperature, mutant - wild type (higher = more stable)” value is 3 °C.
For A53L, the “ddG of mutation (higher = less stable)” value was -0.81 kcal/mol, the “denaturant midpoint (higher = more stable)” value was 1.64 M, the unfolding free energy stood at 5.05 kcal/mol and the Tm is 62 °C. Moreover, the “change of melting temperature, mutant - wild type (higher = more stable)” value came out at 5 °C.
